Laboratory results: article PMC4070910, “Cathepsin S Signals via PAR2 and Generates a Novel Tethered Ligand Receptor Agonist” (PLoS ONE, 2014)
“Also recorded” adds a separate entry of the source.

Columns and labels:
cathepsin S = test: Cathepsin S digestion of the human PAR2 N-terminal peptide (LC/MS/MS); type: biochemical; settings: cathepsin S 1 µM, pH 7.0, 37°C, 20 minutes; MS/MS sequencing
Description: Recombinant human cathepsin S was produced as follows. The human cathepsin S proprotein coding region was isolated by PCR using the forward and reverse primers […] CCTG and […] and a template of plasmid DNA containing the entire coding sequence of human cathepsin S. The PCR product was cut with Nco I and Xho I, and cloned into the pTYB4 expression vector from New England Biolabs for expression in E.coli. Cells were grown in LB medium induced with 0.3 mM IPTG, harvested by centrifugation, resuspended in lysis buffer A (0.5 M NaCl, 0.05 M Tris, 5 mM EDTA, pH 8.0) and lysed in a French press. The lysate was centrifuged and the protein was found predominantly in inclusion bodies which were dissolved in buffer B (10 mM DTT and 8 M urea), and refolded in the presence of buffer B containing 0.7 M L-arginine, 0.01 M glutathione, 0.001 M glutathione disulfide, and 0.005 M EDTA as described. […] The specific activity of cathepsin S was assayed using Z-VVR-AMC in fluorimetric and Z-FR-pNA in colorimetric assays[22] and determined to be 10,000 mU/mg protein.
A peptide comprising the N-terminus of PAR2, […], was dissolved in 50 mM Tris, pH 7.0, 0.1 M NaCl, 0.1 mM EDTA, and 0.01% Tween-20 to a concentration of 100 mM. […] The reaction samples were analyzed by the Harvard Microchemistry & Proteomics Analysis Facility (Cambridge, MA). […]

human PAR2 = test: Fura-2 calcium imaging in HeLa cells transfected with PAR2 cDNA; type: cell-based
Description: Human PAR2 cDNA was cloned as an Xho I-Hind III fragment (1206 bp) into pcDNA3.1(−). 10 µg of DNA were diluted into 0.5 ml of DMEM and mixed with 0.5 ml of DMEM containing 10 µl of Lipofectamine 2000 transfection reagent and incubated at room temperature for 20 minutes. HeLa cells were grown to confluence, trypsinized and 1×10^6 cells were pelleted in a 15 ml tube by centrifugation at 1000 rpm for 5 minutes. The DMEM-Lipofectamine 2000-DNA mixture (1 ml) was added to the cell pellet, resuspended gently and incubated at room temperature for 20 minutes. Four ml of complete DMEM with 10% FBS were added to the tube, mixed by inverting the tube several times, plated into a 96-well glass bottom plate at 20,000 cells/well, and placed in a 37°C CO2 incubator. HeLa cells transfected with vector alone or salmon sperm DNA (shown in the figures) were plated as a control. The medium was aspirated two days after transfection. Fura-2 was used as a ratiometric calcium-sensitive indicator as follows. 100 µl of complete DMEM containing 2 µM of Fura-2 were added to each well and left at room temperature in the dark for 1 hr. Following loading with Fura-2, the medium was aspirated and replaced with 90 µl of HEPES-buffered saline (20 mM HEPES, 115 mM NaCl, 5.4 mM KCl, 2 mM CaCl2, 0.8 mM MgCl2, 13.8 mM glucose, pH 7.4).
Imaging was performed using a Zeiss Axiovert 200 M microscope platform equipped with a flipping filter wheel for ratiometric imaging. Axiovision software, version 4.6 was used for image analysis of the cells which were excited at 340 nm and 380 nm. Ten µl of peptide agonist were added at 20 seconds after the start of the excitation procedure. Images were taken every 5 seconds, including at zero time, during a 3-minute period or longer if required. The software later analyzed all images taken during each excitation period. Typically, ratiometric changes were measured in 10–20 cells in each image. An average of the fluorescence of the cells in each image was calculated and plotted against time in seconds.
HeLa cells transfected with PAR2 cDNA were subjected to ratiometric imaging as described above with PAR2 peptides, SLIGRL, KVDGTS, and SLIGKVDGTS in addition to the reverse peptides LRGILS and STGDVK at concentrations from 1 nM - 1 mM. Each of the concentration-dependent readings was performed in triplicate. Maximum intensities at each of the dilutions were calculated and plotted against concentration using GraphPad/PRISM software version 6.0 (Irvine, CA). Error bars represent +/−SEM.

B1: cathepsin S: Recombinant human cathepsin S, cysteine protease, expressed in E.coli, refolded and activated (protein, UniProt P25774 115-331, looked up)
Cathepsin S: LPDSVDWREKGCVTEVKYQGSCGACWAFSAVGALEAQLKLKTGKLVSLSAQNLVDCSTEKYGNKGCNGGFMTTAFQYIIDNKGIDSDASYPYKAMDQKCQYDSKYRAATCSKYTELPYGREDVLKEAVANKGPVSVGVDARHPSFFLYRSGVYYEPSCTQNVNHGVLVVGYGDLNGKEYWLVKNSWGHNFGEEGYIRMARNKGNHCGIASFPSYPEI
For B1, the “cleavage points (in words)” value (cathepsin S) was “resulted in several cleavage points; also recorded: most frequent after glycine followed by leucine”, the “effect as first agent on calcium response to second agent (in words)” value (human PAR2; PAR2-transfected HeLa, KVDGTS 100 µM, cathepsin S 2 µM, papain 2 µM, trypsin 10 nM, second agent after up to 60 minutes, room temperature) was “failed to induce a calcium response at any time up to 60 minutes” and the “calcium response to the substance as second agent after KVDGTS (in words)” value (human PAR2; PAR2-transfected HeLa, second agent after 2, 3, 5, 10, 30 and 60 minutes (cathepsin S), papain 2 µM, trypsin 10 nM, room temperature) was “present but reduced”. For the same molecule, the “calcium response (in words)” value (human PAR2; single-cell imaging, KVDGTS 100 µM, SLIGRL 10 µM, IGKVDG 100 µM, cathepsin S 2 µM, room temperature) was “able to stimulate native PAR2 and PAR2M1” and the “concentration at which active/effective” value (human PAR2; summary of these studies (discussion)) was 1 to 2 µM.
